Key:
[1] = molecular target: Hfq WT (Escherichia coli K-12 MG1655) (UniProt P0A6X3); experiment: EMSA; conditions: EMSA: 20 mM Tris-HCl pH 7.6, 0.5 M NaCl, 1 mM EDTA, 1% glycerol, 20 min at 25 C, native PAGE in 0.5x TBE at 4 C
[2] = molecular target: Hfq WT (Escherichia coli K-12 MG1655) (UniProt P0A6X3); experiment: competition; conditions: EMSA: 20 mM Tris-HCl pH 7.6, 0.5 M NaCl, 1 mM EDTA, 1% glycerol, 20 min at 25 C; native PAGE in 0.5x TBE at 4 C

Row | Substance | K half [1] | binding [2] | K half ([1]; Hfq monomer, K1 (first shift)) | binding signal ([1]; 347.5 nM Hfq monomer)
1 | GGGAACACAUCAGAUUUCCUGGUGUAACGAAUUUUUUAAGUGCUUCUUGCUUAAGCAAGUUUCAUCCCGACCCCCUCAGGGUCGGGAUUU [DsrA] | 122 nM | binds | – | –
2 | DsrA | – | – | 122 nM | –
3 | RNA I FL | – | – | 225 nM | 72.1 % bound
